From article doi:10.1101/2021.06.15.448552 (bioRxiv, 2021)
Where “and” joins values, the source holds several entries; their conditions need not be identical. Equal values may be shown once. Values belong to the molecule of their own block, whether it stands above or below them.

Tests used:
[1] = target: borneol-type dehydrogenase SrBDH1 from Salvia rosmarinus (S. rosmarinus); test: cryo-EM structure
[2] = target: borneol-type dehydrogenase SrBDH1 from Salvia rosmarinus (S. rosmarinus); test: SEC-MALS
SEC-MALS = target: the molecule itself; test: SEC-MALS

stoichiometry N [1]: 4 | stoichiometry N [2]: 4
Molecule: borneol-type dehydrogenase SrBDH1 from Salvia rosmarinus (enzyme)

B1: borneol-type dehydrogenase SoBDH2 from Salvia officinalis (enzyme)
chain: MATGAANVESPQSLPLRLLGRVALVTGGSSGIGESIVLLFRKHGAKVCIADVQDNQGQRLCETLGGSSDIAFCHCDVTIEDDVKRAVDFTVDKFGTLDIMVNNAGVSGPPCPDIRDFELSAFDRVFDINVRGVFIGMKHAARIMIPAKKGSIISISSVASTMGGLGPHAYTGSKHAVLGLTKNVAAELGKHGIRVNCVSPYAVATSLALAHLPEAERTEDTWDDFRRFVADNANLQGVELTMEDVANAVVFLASDEARYVSGMNLMVDGGFTSTNHALQVFRP
stoichiometry N (SEC-MALS): 8 and 4
